Assay results reported in the nanobody polyreactivity screen of Harvey et al. (2022).

test: yeast display, Sf9 membrane polyspecificity reagent, FACS + sequencing; frameworks hold sequencing errors
Summary of the method: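 Nanobodies came from a synthetic yeast display library in Saccharomyces cerevisiae BJ5465, induced with galactose for 36–48 hours and stained for 1 hour at 4 °C with 10% biotinylated, detergent-solubilized Sf9 membrane reagent. Cells were enriched on streptavidin microbeads and then FACS-sorted, with low and high (top ~1%) gates set on anti-HA fluorescence for expression and streptavidin fluorescence for reagent binding. Each polyreactivity label reflects the gate a clone came from. Genes were amplified by colony PCR, sequenced by MiSeq 2 × 250 and filtered by CDR length.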

Row | Sequence | polyreactivity (PSR sort gate)
1 | QVQLVESGGGLVQAGGSLRLSCAASGLIFGPYAMGWYRQAPGKERELLAASWRGGSTYYADSVKGRFTISRDNAKNTVFLQMNSLKPEDTAVYYCAADVIYSLYYYWGQGTQVTVSS | low polyreactivity
2 | QVQLVESGGGLVQAGGSLRLSCAASGLIFGPYAMGWYRQAPGKERELVAAITSSGGSTYYADSVKGRFTISRDNAKNTVYLQMNSLKPEDTAVYSCAARGSPRYYARYNYWGQGTQVTVSS | low polyreactivity
3 | QVQLVESGGGLVQAGGSLRLSCAASGLIFGRNVMGWYRQAPGKERELVAAISWSGGRTYYADSVKGRFTISRDNAKNTVYLQMNSLKPEDTAVYYCAADDGPGFDYWGQGTQVTVSS | high polyreactivity
4 | QVQLVESGGGLVQAGGSLRLSCAASGLIFGSYAMGWYRQAPGKERELVAASSRSGGSTYYADSVKGRFTISRDKAKNSVYLQMISLKPEDTAVYYFAADDYSSEYDYWGQGTQVTVSS | high polyreactivity
5 | QVQLVESGGGLVQAGGSLRLSCAASGLIFGTKAMGCYRQAPGKERELVAAMSGSGGRTYYADSVKARFTISRDNAKNTVYLQMNSLKPEDTAVYYCASRFWRLHVGYGYSGQGTQVTVSS | high polyreactivity
6 | QVQLVESGGGLVQAGGSLRLSCAASGLIFGTYAMGWYRQAPGKERELVATITRGGGSTYYADSVKGRFTISRDNAKNTVYLQMNSLKPEDTAVYDCAKTYFYGVRRFNYWGQGTQVTVSS | high polyreactivity
7 | QVQLVESGGGLVQAGGSLRLSCAASGLIFGWNAMGGYRQAPGKERELVAAINSGGITNYADSVKGRFTISRDNAKNTVYLQMYSLKPDDTEVYYCAADVVQYGLDWYGEEYESWGQGTQVTVSS | low polyreactivity
8 | QVQLVESGGGLVQAGGSLRLSCAASGLIFGWYAMGWYRQAPGKERELVAGISGSGGITYYADSVKGRFTISRDNAKNTVYLQMNSLKPEDTAVYYCNARYPRYYRGVIQYDFWGQGTQVTVSS | low polyreactivity
9 | QVQLVESGGGLVQAGGSLRLSCAASGLIFHQYAMGWYRQAPGKERELVAAITRSGTRTYYADSVKGRFTISRDNAKNTVYLQMNSLKPEDTAVYYCAAADTQGVSMDYWGQGTQVTVSS | high polyreactivity
10 | QVQLVESGGGLVQAGGSLRLSCAASGLIFIAYAMGWYRQATGKERELVAAISSSGGSTYYADSVKGRFTISRDNAKNTVYLQMTSLKREDTAVYYCAADRYAWGTGRYGYWGQGTQVTVSS | low polyreactivity
11 | QVQLVESGGGLVQAGGSLRLSCAASGLIFIIYTRGWSRQAPGKERELVAAITRRGGITYYADSVKGRFTISRDNAKNTVYLQMNSLKPEDTAVYYCAVVRPYNIWYDYWGQGTQVTVSS | low polyreactivity
12 | QVQLVESGGGLVQAGGSLRLSCAASGLIFITYAMGWYRQAPGKERELVATITLRGGSTYYADSVKGRFTISRDNAKNTVYLQMNSLKPEDTAVYYCAADVGYWGRSSGYPSDDYDYWGQGTQVTVSS | low polyreactivity
13 | QVQLVESGGGLVQAGGSLRLSCAASGLIFIVYAMGWSRQAPGKERELVAAISWSGGSTYYADSVKGRFTISRDNAKNTVYLQMNSLKPEDTAVYYCAAPSSVRGKVISADYGYWGQGTQVTVSS | high polyreactivity
14 | QVQLVESGGGLVQAGGSLRLSCAASGLIFKGYVMGWYRQAPGKERELVAAISRRGGSTYYADSVKGRFTISRDNAKNTVYLQMNSLKPEDTAVYYCATEVYDIDGWWGYDYWGQGTQVTVSS | high polyreactivity
15 | QVQLVESGGGLVQAGGSLRLSCAASGLIFKKYTMGWYRQAPGKERELVASISKSGGSTYYADSVKARFTISRDNAKNTVYLQMNSLKPEDTAVYYCAVGSTDRVSAQGSYFTYDYWGQVTQVTVSS | low polyreactivity
16 | QVQLVESGGGLVQAGGSLRLSCAASGLIFKRYAMGWYRQAPGKERELVAAISYSGGSTYYADSVKGRFTISRDNAKNTVYLQMNSLKPEDTAVYYCATVYYHRFDYWGQGTQVTVSS | high polyreactivity
17 | QVQLVESGGGLVQAGGSLRLSCAASGLIFLAYTMGWYRLAPGKVRELVAAISYSDGSTYYADSVKARFTISRDNANNTVYVQMNSLKPEDTAVYYCAARPRPPLRSYDYWGQGTQVTVSA | low polyreactivity
18 | QVQLVESGGGLVQAGGSLRLSCAASGLIFLQYVMGWSRQAPGKEREFVATITDDGDTTYYADSVKGRFTISRDNAKNTVYLQMNSLKPEDTAVYYCAADAEGSASKYDYWGQGTQVTVSS | low polyreactivity
19 | QVQLVESGGGLVQAGGSLRLSCAASGLIFLVNAMGWYRQAPGKERELVAAIDRDGGITYADSVKGRFTISRDNAKNTVYLQMNSQKPEDTAVYYCAADPSSYGRFTYDYWGQGTQVTVSS | low polyreactivity
20 | QVQLVESGGGLVQAGGSLRLSCAASGLIFLYYAMGSYRQAPGKERELVAAIRTNYADSVKGRFTISRDNAKNTVSLQMNSLKPEDTAVYYCIAVSGDSGDYWGQGTQVTVSS | low polyreactivity
21 | QVQLVESGGGLVQAGGSLRLSCAASGLIFLYYTMGWYRQAPGKERELVAAISSAGRTNYADSVKGRFTISRDNAKNTVYLQMNSLKPEDTAVYYCNADGGWWARYGYWGQGTQVTVSS | low polyreactivity
22 | QVQLVESGGGLVQAGGSLRLSCAASGLIFNWNDMGWYRQAPGKERELVAAISGDGGITYYADSVKGRFTISRDNAKNTVFLQMNSLKPEDTAVYYCNAGFTWGDWYDYWGQGTQVTVSS | low polyreactivity

Row | Sequence | polyreactivity (PSR sort gate)
23 | QVQLVESGGGLVQAGGSLRLSCAASGLIFPANAMGWYRPAPGKERELVAAISWRGSSTYYADSVKGRFTISRDNAKNTVYLQMNSLKPEDTAVYYCNVYVRSGSLRDIGYKYDYWGQGTQVTVSS | high polyreactivity
24 | QVQLVESGGGLVQAGGSLRLSCAASGLIFPRYTMGWYRQAPGKERELVAAIRGTGGSTYYADSVKGRFTISRDNAKNTVYLQMNSLKPEDTAVYYCATRGKSHGQQFNYWGQGTQVTVSS | high polyreactivity
25 | QVQLVESGGGLVQAGGSLRLSCAASGLIFPSYVMGWYRLAPGKERELVAGITIGDRTYYADSVKGRFTISRDNAKNTVYLQMNSLKPEDTAVYYCAAVYTYAGRRFGYWGQGTQVTVSS | high polyreactivity
26 | QVQLVESGGGLVQAGGSLRLSCAASGLIFPWNAMGWYRQAPGKERELVAAINGRDGSTYYADSVKGRFTISRDNAKNTVYLQMNSLKPEDTAVYYCAKGPSGVRTYREYDSWGQGTQVTVSS | low polyreactivity
27 | QVQLVESGGGLVQAGGSLRLSCAASGLIFQFNAKGWYTQAPGKDREFVAAISGRADSTYYADSVKGRFTISRDNAKNTVYLQMNSLKPEDTAVYYCAALAYYHRYEYWGQGTQVTVSS | low polyreactivity
28 | QVQLVESGGGLVQAGGSLRLSCAASGLIFQHNAMGWYRQAPGKERELVAAISRSAGSTYYADSVKGRFTISRDNAKNTVYLQMNSLKPEDTAVYYCAKRPTPTSKYDTVRYGYWGQGTQVTVSS | low polyreactivity
29 | QVQLVESGGGLVQAGGSLRLSCAASGLIFQLYAMGWSRQAPGKERELLAAITIRDGSTYYADSVKGRFTISRDNAKNTVYFQMNSLKPEDTAFYFCAAEPVYYYPWSQYDYWGQGTQVTVSS | high polyreactivity
30 | QVQLVESGGGLVQAGGSLRLSCAASGLIFQSYAMGWYRQAPGKERELVAVITWSGTSTYADSVKGRFTISRDNAKNTVYLQMNSLKPEDTAVYYCAASKYGSFTNFGYWGQGTQVTVSS | low polyreactivity
31 | QVQLVESGGGLVQAGGSLRLSCAASGLIFQTYAMGWYRQAPGKERELVATISGSTGGTYYADSVKGRFTISRDNAKNTVYLQMNSLKPEDTAVYYCNASVFQSEYDYWGQGTQVTVSS | low polyreactivity
32 | QVQLVESGGGLVQAGGSLRLSCAASGLIFQVYTMGWYRQAPGKERELVAAISWDAGSTYYADSVKGRFTISRDNAKNTVYLLMNSLKPEDTAVYYCATTQYTTYGRRYYWGQGTQVTVSS | high polyreactivity
33 | QVQLVESGGGLVQAGGSLRLSCAASGLIFQYYVMGWYRQAPGKERQLVAAISARGGGTYYADSVKGRFTISRDNAKNTVYLQMNSLKPEDTAVYYCAADPVYAGPGYDYWGQGTQVTVSS | high polyreactivity
34 | QVQLVESGGGLVQAGGSLRLSCAASGLIFRANSMGWYRQPPGKVRELVAAISSGGSTYYADSVKGRFTISRDNAKNTVYLQMNSLIPEDTAFYYCAALGQSPSRFGYWGQGTQVTVSS | low polyreactivity
35 | QVQLVESGGGLVQAGGSLRLSCAASGLIFRGYAMGWYRQAPGKERELVAAISRSGGRTYYADSVKGRYTISRDNAKNTVYLQMNSLKPVDTAVYYCAAQWLYLEYDYWGQGTQVTVSS | high polyreactivity
36 | QVQLVESGGGLVQAGGSLRLSCAASGLIFRHYAMGWYRQAPGKERELVDAITRSGGSTNYADSVKGRFTISRDNAKNTVYLQMNSLKPEDTAVYYCNAGIRYFVVGRSSYDYWGQGTQVTVSS | low polyreactivity
37 | QVQLVESGGGLVQAGGSLRLSCAASGLIFRHYTMGWYRQAPGKERELVAAISRSGGSTRYADSVKGRFTISRDNAKNTVYLQMNSLKPEDTAVYYCAASSVKSTWTLDYWGQGTQVTVSS | high polyreactivity
38 | QVQLVESGGGLVQAGGSLRLSCAASGLIFRKNAMGWDRQAPGKERELVAAMSYNGASTYYADSVKGRFTISRDNAKNTVYLQMNSLKPEDTAVYYCAAYAGYSDQARYYYWGQGTQVTVSS | high polyreactivity
39 | QVQLVESGGGLVQAGGSLRLSCAASGLIFRPYAMGWYRQAPGKERELVAAISSSGGSTYYADSVKGRFTISRDNAKNTVYLQMNSLKPEDTAVYYCATYFARGYNSWGQGTQVTVSS | high polyreactivity
40 | QVQLVESGGGLVQAGGSLRLSCAASGLIFRPYDMGWYRQAPGKERELVAAISNGDSTNYADSVKGRFTISRDNAKNTVYLQMNSLKPEDTAVYYCAAEDYYIYREPYDYWGQGTQVTVSS | low polyreactivity
41 | QVQLVESGGGLVQAGGSLRLSCAASGLIFRPYTMGWYRQAPGKERELVAAISRSGGSTYYADSVKGRFTISRDNAKNTVYLQVNSLKPEDTAVYYCNAVPRRQGFNYWGQGTQVTVSS | high polyreactivity
42 | QVQLVESGGGLVQAGGSLRLSCAASGLIFRSYAMGWYRQAPGKERELVARISIRGGSTYYADSVKGRFTISRDNAKNTVYLQLNSLKPEVTAVYYCAAVGYFGGYRYDYWGHGTQVTVSS | high polyreactivity
43 | QVQLVESGGGLVQAGGSLRLSCAASGLIFRTNAMGGYRQAPGKERELVAAISWSTGTTYYADSVKGRFTISRDIAKNTVYFQMNSVNPEDTAVSYCARTLRWTYRYGYWGQGTQVTVSS | high polyreactivity
